Measurements reported in IntAct's records for PubMed 21481780.

B1: Phosphotransferase RcsD (Escherichia coli (strain K12)), P39838 (parent)
chain: MRQKETTATTRFSLLPGSITRFFLLLIIVLLVTMGVMVQSAVNAWLKDKSYQIVDITHAIQKRVDNWRYVTWQIYDNIAATTSPSSGEGLQETRLKQDVYYLEKPRRKTEALIFGSHDNSTLEMTQRMSTYLDTLWGAENVPWSMYYLNGQDNSLVLISTLPLKDLTSGFKESTVSDIVDSRRAEMLQQANALDERESFSNMRRLAWQNGHYFTLRTTFNQPGHLATVVAFDLPINDLIPPGMPLDSFRLEPDATATGNNDNEKEGTDSVSIHFNSTKIEISSALNSTDMRLVWQVPYGTLLLDTLQNILLPLLLNIGLLALALFGYTTFRHFSSRSTENVPSTAVNNELRILRAINEEIVSLLPLGLLVHDQESNRTVISNKIADHLLPHLNLQNITTMAEQHQGIIQATINNELYEIRMFRSQVAPRTQIFIIRDQDREVLVNKKLKQAQRLYEKNQQGRMIFMKNIGDALKEPAQSLAESAAKLNAPESKQLANQADVLVRLVDEIQLANMLADDSWKSETVLFSVQDLIDEVVPSVLPAIKRKGLQLLINNHLKAHDMRRGDRDALRRILLLLMQYAVTSTQLGKITLEVDQDESSEDRLTFRILDTGEGVSIHEMDNLHFPFINQTQNDRYGKADPLAFWLSDQLARKLGGHLNIKTRDGLGTRYSVHIKMLAADPEVEEEEERLLDDVCVMVDVTSAEIRNIVTRQLENWGATCITPDERLISQDYDIFLTDNPSNLTASGLLLSDDESGVREIGPGQLCVNFNMSNAMQEAVLQLIEVQLAQEEVTESPLGGDENAQLHASGYYALFVDTVPDDVKRLYTEAATSDFAALAQTAHRLKGVFAMLNLVPGKQLCETLEHLIREKDVPGIEKYISDIDSYVKSLL
partner: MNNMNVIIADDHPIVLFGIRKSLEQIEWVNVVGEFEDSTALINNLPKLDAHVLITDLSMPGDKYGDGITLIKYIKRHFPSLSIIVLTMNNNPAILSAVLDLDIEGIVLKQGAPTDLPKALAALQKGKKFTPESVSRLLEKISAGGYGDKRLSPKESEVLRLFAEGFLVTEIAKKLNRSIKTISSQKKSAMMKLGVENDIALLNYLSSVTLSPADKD

Variants of: B1
Conditions: with rcsb_ecoli rcsB

Row | effect of a mutation on the interaction | Variant
1 | decreasing interaction | N715A;Q776A;L780A
